Test results: publication PMC12724217

What was measured:
[1] = molecular target: human chromosomal region maintenance 1 (CRM1) (UniProt O14980); assay: two-hybrid
[2] = molecular target: human chromosomal region maintenance 1 (CRM1) (UniProt O14980); assay: mammalian two-hybrid (CheckMate system) luciferase assay; conditions: HEK-293 cells, 100 ng pG5luc reporter plasmid, 96 hours transfection, read off a plot; for percent of parent: parent: est. 100

Substance | response (fold induction) ([2]; parent: est. 5.7) | percent of parent [2] | further results
DHOV M I121A (natural protein) |  |  | reduction of the firefly luciferase signal relative to WT M [1]: > 10%
Dhori virus (DHOV) matrix protein (M) M119S | 7.3 | 130 % of WT M | 
Dhori virus (DHOV) matrix protein (M) L120S | 7.7 | 140 % of WT M | 
Dhori virus (DHOV) matrix protein (M) V115S | 6.2 | 110 % of WT M | 
Dhori virus (DHOV) matrix protein (M) M119A | 5.8 | 100 % of WT M | 
Dhori virus (DHOV) matrix protein (M) V115R; L116R; M119R; L120R; I121R; L122R; I127R |  | 27 % of WT M | response (fold induction) ([2]; parent: est. 5.2): 1.4
Dhori virus (DHOV) matrix protein (M) I127A | 11 |  | 
Dhori virus (DHOV) matrix protein (M) L120A | 7.6 | 130 % of WT M | 
Dhori virus (DHOV) matrix protein (M) I127S | 14 |  | 
Dhori virus (DHOV) matrix protein (M) L116A | 4.2 | 74 % of WT M | 
Dhori virus (DHOV) matrix protein (M) V115G; L116G; M119G; L120G; I121G; L122G; I127G |  | 27 % of WT M | response (fold induction) ([2]; parent: est. 5.2): 1.4
Dhori virus (DHOV) matrix protein (M) L116S | 5.3 | 92 % of WT M | 
DHOV M L122S (natural protein) |  |  | firefly luciferase signal as percent of WT M [1]: < 70 % of WT M
Dhori virus (DHOV) matrix protein (M) V115A; L116A; M119A; L120A; I121A; L122A; I127A |  | 27 % of WT M | response (fold induction) ([2]; parent: est. 5.2): 1.4
Dhori virus (DHOV) matrix protein (M) I121A; L122A |  | 86 % of WT M | response (fold induction) ([2]; parent: est. 5.2): 4.5
Dhori virus (DHOV) matrix protein (M) I121S; L122S |  | 90 % of WT M | response (fold induction) ([2]; parent: est. 5.2): 4.7
DHOV M I121S (natural protein) |  |  | reduction of the firefly luciferase signal relative to WT M [1]: > 10%
Dhori virus (DHOV) matrix protein (M) V115A | 6 | 110 % of WT M | 
DHOV M L122A (natural protein) |  |  | firefly luciferase signal as percent of WT M [1]: < 70 % of WT M
